The results in this text go back to patent US20210309720A1 (MIT, published 2021).

One assay has as its target T1, IL8 (UniProt P10145 28-99, limits assumed).
T1 sequence (looked up): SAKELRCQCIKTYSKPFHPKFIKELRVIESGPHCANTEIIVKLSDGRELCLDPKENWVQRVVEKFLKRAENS
The assay can be described thus: MicroScale Thermophoresis, 5 nM NT647-labeled receptor against a gradient of ligand, 25 C. As to the method: (§1) The affinity of QTY modified cytokine receptor fused with Fc of IgG for their respective native ligands was measured using MicroScale Thermophoresis (MST). Changes in thermophoretic movement for labeled proteins upon ligand-binding were recorded and plotted as a function of ligand concentration.
(§2) MicroScale Thermophoresis (MST) is an optical method detecting changes in thermophoretic movement and TRIC of the protein-attached fluorophore upon ligand binding. Active labelled proteins contribute to the thermophoresis signal upon ligand binding. […] Herein ligand binding experiments were carried out with 5 nM NT647-labeled protein in 1×PBS, 10 mM DTT buffer with different concentration of arginine, against a gradient of respective ligands on a Monolith NT.115 pico instrument at 25° C. Synthesized receptors were labeled with Monolith NT™ 2nd generation protein labeling kit RED-NHS (NanoTemper Technologies) so as to obtain unique fluorescent signals. MST time traces were recorded and analyzed to obtain the highest possible signal-to-noise levels and amplitudes, >5 Fnorm units. The recorded fluorescence was plotted against the concentration of ligand, and curve fitting was performed using the Kd fit formula derived from the law of mass action. For clarity, binding graphs of each independent experiment were normalized to the fraction bound (0=unbound, 1=bound). […]
(In general: In MST a laser heats a spot of the sample, and binding alters the fluorescence response.)

The target in another assay is T2, CCL25 (UniProt O15444 24-150).
T2 sequence (looked up): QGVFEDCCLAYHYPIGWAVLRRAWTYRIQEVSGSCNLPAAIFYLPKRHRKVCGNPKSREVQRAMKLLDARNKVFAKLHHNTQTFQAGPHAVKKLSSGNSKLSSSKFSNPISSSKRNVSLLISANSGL
Described as above. As for the experimental part:
as §1, §2

B1: CXCR2-QTY Fc (Fc fusion)
chain: MEDFNMESDSFEDFWKGEDLSNYSYSSTLPPFLLDAAPCEPESLEINKYYTTTTYAQTYQQSQQGNSQTMQTTQYSRVGRSVTDTYQQNQAQADQQYAQTQPTWAASKVNGWIFGTFLCKTTSQQKETNYYSGTQQQACTSTDRYLAIVHATRTLTQKRYLVKYTCQSTWGQSQQQAQPTQQYRRTVYSSNVSPACYEDMGNNTANWRMQQRTQPQSYGYTQPQQTMQYCYGFTLRTLFKAHMGQKHRAMRTTYATTQTYQQCWQPYNQTQQADTLMRTQVIQETCERRNHIDRAQDATETQGTQHSCQNPQTYAYTGQKFRHGLLKILAIHGLISKDSLPKDSRPSFVGSSSGHTSTTLTETSQVAPAHHHHHHHHHHGSKLVDPRGPTIKPCPPCKCPAPNLLGGPSVFIFPPKIKDVLMISLSPIVTCVVVDVSEDDPDVQISWFVNNVEVHTAQTQTHREDYNSTLRVVSALPIQHQDWMSGKEFKCKVNNKDLPAPIERTISKPKGSVRAPQVYVLPPPEEEMTKKQVTLTCMVTDFMPEDIYVEWTNNGKTELNYKNTEPVLDSDGSYFMYSKLRVEKKNWVERNSYSCSVVHEGLHNHHTTKSFSRTPGK
modifications: labeled with NT647 fluorescent dye (Monolith NT 2nd generation protein labeling kit RED-NHS)
notes: also called Fc fusion QTY CXCR2 variant receptor protein
The term Kd denotes the free concentration of one partner at which half of the binding sites on the other are occupied at equilibrium, for simple one-to-one binding. Lower therefore signals higher affinity. B1: the Kd in the assay with IL8 was found to be 60.3 nM.

B2: CCR9-QTY Fc (Fc fusion)
chain: MTPTDFTSPIPNMADDYGSESTSSMEDYVNFNFTDFYCEKNNVRQFASHYQPPQYWQTYTTGAQGNSQTTQTYWYCTRVKTMTDMYQQNQATADQQYQTTQPYWATAAADQWKFQTFMCKTTNSMYKMNYYSCTQQTMCTSTDRYTATAQAMRAHTWREKRQQYSKMTCYTTWTQAAAQCTPETQYSQIKEESGIAICTMVYPSDESTKQKSATQTQKTTQGYYQPYTTMACCYTTTTHTQTQAKKSSKHKAQKTTTTTQTTYTQSQYPYNCTQQTQTTDAYAMFISNCATSTNTDTCYQTTQTTAYYHSCQNPTQYTYTGERFRRDLVKTLKNLGCISQAQWVSFTRREGSLKLSSMLLETTSGALSLTETSQVAPAHHHHHHHHHHTETSQVAPAHHHHHHHHHHGSKLVDPRGPTIKPCPPCKCPAPNLLGGPSVFIFPPKIKDVLMISLSPIVTCVVVDVSEDDPDVQISWFVNNVEVHTAQTQTHREDYNSTLRVVSALPIQHQDWMSGKEFKCKVNNKDLPAPIERTISKPKGSVRAPQVYVLPPPEEEMTKKQVTLTCMVTDFMPEDIYVEWTNNGKTELNYKNTEPVLDSDGSYFMYSKLRVEKKNWVERNSYSCSVVHEGLHNHHTTKSFSRTPGK
modifications: labeled with NT647 fluorescent dye (Monolith NT 2nd generation protein labeling kit RED-NHS)
notes: also called Fc fusion QTY CCR9 variant receptor protein
In the assay with CCL25, B2 returned a Kd of 37.2 nM.
